One test addresses YFP-p65 (UniProt Q04206). Briefly: FRET or BRET; 3-filter FRET by flow cytometry (CYTOFLEX S) of living transfected HeLa cells, five plasmid ratios; DFRET of single cells fitted to a law-of-mass-action model (Ka^app apparent, z, FRETmax).
A further test addresses T1, YFP-tagged IKKα (UniProt O15111 1-745).
T1 construct: IKKα, IKK subunit α of the NF-kappaB pathway; FRET donor; also called IKK subunit α; source: HeLa cells (clone ACC 57), transfected, in living cells
T1 sequence (looked up): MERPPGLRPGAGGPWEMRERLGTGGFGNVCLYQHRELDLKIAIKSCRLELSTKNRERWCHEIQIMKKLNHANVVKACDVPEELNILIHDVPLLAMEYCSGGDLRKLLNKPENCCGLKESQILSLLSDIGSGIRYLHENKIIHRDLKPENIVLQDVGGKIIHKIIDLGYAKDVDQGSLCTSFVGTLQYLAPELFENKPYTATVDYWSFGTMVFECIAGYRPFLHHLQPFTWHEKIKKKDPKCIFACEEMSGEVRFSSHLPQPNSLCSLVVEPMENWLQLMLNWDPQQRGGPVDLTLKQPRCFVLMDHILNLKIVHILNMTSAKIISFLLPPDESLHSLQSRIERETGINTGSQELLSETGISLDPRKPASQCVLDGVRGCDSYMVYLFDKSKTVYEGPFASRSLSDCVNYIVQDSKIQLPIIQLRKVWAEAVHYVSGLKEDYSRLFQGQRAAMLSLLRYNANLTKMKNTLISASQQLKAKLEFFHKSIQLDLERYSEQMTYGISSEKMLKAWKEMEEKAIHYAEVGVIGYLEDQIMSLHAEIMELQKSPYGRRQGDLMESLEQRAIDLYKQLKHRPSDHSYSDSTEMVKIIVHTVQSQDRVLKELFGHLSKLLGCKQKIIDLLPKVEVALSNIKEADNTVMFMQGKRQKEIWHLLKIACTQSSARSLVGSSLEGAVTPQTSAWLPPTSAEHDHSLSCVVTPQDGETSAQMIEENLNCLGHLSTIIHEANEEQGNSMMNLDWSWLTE
Described as above. Particulars: partners not purified.

The stoichiometry N is the number of molecules, sites or subunits per partner or assembly.

YFP-p65, sequence (Q04206 whole entry): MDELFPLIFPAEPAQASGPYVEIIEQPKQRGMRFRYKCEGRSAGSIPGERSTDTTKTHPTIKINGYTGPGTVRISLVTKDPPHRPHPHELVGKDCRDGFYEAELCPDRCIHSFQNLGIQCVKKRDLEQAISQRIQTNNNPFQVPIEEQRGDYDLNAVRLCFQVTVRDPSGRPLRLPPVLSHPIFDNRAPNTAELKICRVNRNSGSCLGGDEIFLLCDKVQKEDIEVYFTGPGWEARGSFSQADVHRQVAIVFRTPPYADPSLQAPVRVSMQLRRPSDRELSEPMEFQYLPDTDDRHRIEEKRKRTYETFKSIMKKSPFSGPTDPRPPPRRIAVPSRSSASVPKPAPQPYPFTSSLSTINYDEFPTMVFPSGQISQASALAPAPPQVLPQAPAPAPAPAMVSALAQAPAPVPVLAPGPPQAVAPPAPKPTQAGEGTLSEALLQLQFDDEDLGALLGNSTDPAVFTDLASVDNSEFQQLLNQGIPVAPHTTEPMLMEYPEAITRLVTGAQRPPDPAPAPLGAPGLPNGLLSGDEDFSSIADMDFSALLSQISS

Take “IκB-mCherry (from UniProt P25963 1-317) (natural protein)”: in the test with YFP-p65, the stoichiometry N (acceptor (IκB) per donor (p65)) was determined as 0.5.

B1: mCherry-tagged IKKβ (natural protein, UniProt O14920 1-756, looked up)
chain: MSWSPSLTTQTCGAWEMKERLGTGGFGNVIRWHNQETGEQIAIKQCRQELSPRNRERWCLEIQIMRRLTHPNVVAARDVPEGMQNLAPNDLPLLAMEYCQGGDLRKYLNQFENCCGLREGAILTLLSDIASALRYLHENRIIHRDLKPENIVLQQGEQRLIHKIIDLGYAKELDQGSLCTSFVGTLQYLAPELLEQQKYTVTVDYWSFGTLAFECITGFRPFLPNWQPVQWHSKVRQKSEVDIVVSEDLNGTVKFSSSLPYPNNLNSVLAERLEKWLQLMLMWHPRQRGTDPTYGPNGCFKALDDILNLKLVHILNMVTGTIHTYPVTEDESLQSLKARIQQDTGIPEEDQELLQEAGLALIPDKPATQCISDGKLNEGHTLDMDLVFLFDNSKITYETQISPRPQPESVSCILQEPKRNLAFFQLRKVWGQVWHSIQTLKEDCNRLQQGQRAAMMNLLRNNSCLSKMKNSMASMSQQLKAKLDFFKTSIQIDLEKYSEQTEFGITSDKLLLAWREMEQAVELCGRENEVKLLVERMMALQTDIVDLQRSPMGRKQGGTLDDLEEQARELYRRLREKPRDQRTEGDSQEMVRLLLQAIQSFEKKVRVIYTQLSKTVVCKQKALELLPKVEEVVSLMNEDEKTVVRLQEKRQKELWNLLKIACSKVRGPVSGSPDSMNASRLSQPGQLMSQPSTASNSLPEPAKKSEELVAEAHNLCTLLENAIQDTVREQDQSFTALDWSWLQTEEEEHSCLEQAS
notes: IKKβ, IKK subunit β of the NF-kappaB pathway; FRET acceptor; also called IKK subunit β; source: HeLa cells (clone ACC 57), transfected, in living cells
Regarding B1, the “stoichiometry N” value in the test with YFP-tagged IKKα was ~1 acceptor (IKKβ) per donor (IKKα).

(Values after publication PMC6547726, “Advanced FRET normalization allows quantitative analysis of protein interactions including stoichiometries and relative affinities in living cells” (Scientific Reports, 2019).)
